Paper PMC2629585, “Local Inflammation Induces Complement Crosstalk Which Amplifies the Antimicrobial Response” (PLoS Pathogens, 2009)

Target: T1, C1q (UniProt P02745 23-245; P02746 28-253; P02747 29-245)
T1 construct: complement C1q subcomponent subunit A; complement C1q subcomponent subunit B; complement C1q subcomponent subunit C; source: bought: Quidel (San Diego, CA); copies: + +
Assay: ELISA; competition; 0.8 ug CRP immobilised; 0.8 ug C1q with increasing L-ficolin or 0.8 ug L-ficolin with increasing C1q; TBS, 0.05% Tween-20, 1% HSA, pH 7.4, 2.5 mM calcium
Conditions: both partners purified

T1 sequence (P02745 23-245, chain 1 of 3): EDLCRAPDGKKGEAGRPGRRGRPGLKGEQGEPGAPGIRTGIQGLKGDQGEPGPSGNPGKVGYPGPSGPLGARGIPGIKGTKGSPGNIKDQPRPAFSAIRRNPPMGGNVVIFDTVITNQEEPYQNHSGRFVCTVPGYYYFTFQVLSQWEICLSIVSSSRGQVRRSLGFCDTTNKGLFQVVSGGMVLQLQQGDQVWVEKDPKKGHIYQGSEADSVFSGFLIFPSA
T1 sequence (P02746 28-253, chain 2 of 3): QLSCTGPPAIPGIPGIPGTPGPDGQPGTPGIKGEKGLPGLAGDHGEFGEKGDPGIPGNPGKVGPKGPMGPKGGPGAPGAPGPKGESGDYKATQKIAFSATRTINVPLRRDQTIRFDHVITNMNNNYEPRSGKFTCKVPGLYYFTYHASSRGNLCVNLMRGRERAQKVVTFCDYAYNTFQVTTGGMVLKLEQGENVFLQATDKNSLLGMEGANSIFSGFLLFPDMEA
T1 sequence (P02747 29-245, chain 3 of 3): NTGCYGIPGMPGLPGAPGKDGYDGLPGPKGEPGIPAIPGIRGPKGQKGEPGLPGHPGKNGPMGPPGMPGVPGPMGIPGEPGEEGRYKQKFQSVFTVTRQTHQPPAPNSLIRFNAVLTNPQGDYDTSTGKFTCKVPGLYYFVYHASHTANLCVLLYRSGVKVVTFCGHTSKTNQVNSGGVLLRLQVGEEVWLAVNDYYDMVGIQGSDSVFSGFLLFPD

B1: C-reactive protein (CRP), human, purified (Sigma) (natural protein, UniProt P02741 19-224, looked up)
chain: QTDMSRKAFVFPKESDTSYVSLKAPLTKPLKAFTVCLHFYTELSSTRGYSIFSYATKRQDNEILIFWSKDIGYSFTVGGSEILFEVPEVTVAPVHICTSWESASGIVEFWVDGKPRVRKSLKKGYTVGAEASIILGQEQDSFGGNFEGSQSLVGDIGNVNMWDFVLSPDEINTIYLGGPFSPNVLNWRALKYEVQGEVFTKPQLWP
notes: human C-reactive protein, bought from Sigma; purity checked by SDS PAGE and mass spectrometry; source: bought: Sigma
binding result: binds
